Assay results reported in EP4722245A1, “ANTIBODY TARGETING ITGA2, ANTIBODY DRUG CONJUGATE THEREOF, AND USE” (Foreseen Technology (Beijing) Co., Ltd., priority 2023, dated 2024).
Positions count from the first letter of the chain named.

T1: ITGA2 protein on the surface of human tumor cells (human, UniProt P17301 30-1181)
T1 sequence (looked up): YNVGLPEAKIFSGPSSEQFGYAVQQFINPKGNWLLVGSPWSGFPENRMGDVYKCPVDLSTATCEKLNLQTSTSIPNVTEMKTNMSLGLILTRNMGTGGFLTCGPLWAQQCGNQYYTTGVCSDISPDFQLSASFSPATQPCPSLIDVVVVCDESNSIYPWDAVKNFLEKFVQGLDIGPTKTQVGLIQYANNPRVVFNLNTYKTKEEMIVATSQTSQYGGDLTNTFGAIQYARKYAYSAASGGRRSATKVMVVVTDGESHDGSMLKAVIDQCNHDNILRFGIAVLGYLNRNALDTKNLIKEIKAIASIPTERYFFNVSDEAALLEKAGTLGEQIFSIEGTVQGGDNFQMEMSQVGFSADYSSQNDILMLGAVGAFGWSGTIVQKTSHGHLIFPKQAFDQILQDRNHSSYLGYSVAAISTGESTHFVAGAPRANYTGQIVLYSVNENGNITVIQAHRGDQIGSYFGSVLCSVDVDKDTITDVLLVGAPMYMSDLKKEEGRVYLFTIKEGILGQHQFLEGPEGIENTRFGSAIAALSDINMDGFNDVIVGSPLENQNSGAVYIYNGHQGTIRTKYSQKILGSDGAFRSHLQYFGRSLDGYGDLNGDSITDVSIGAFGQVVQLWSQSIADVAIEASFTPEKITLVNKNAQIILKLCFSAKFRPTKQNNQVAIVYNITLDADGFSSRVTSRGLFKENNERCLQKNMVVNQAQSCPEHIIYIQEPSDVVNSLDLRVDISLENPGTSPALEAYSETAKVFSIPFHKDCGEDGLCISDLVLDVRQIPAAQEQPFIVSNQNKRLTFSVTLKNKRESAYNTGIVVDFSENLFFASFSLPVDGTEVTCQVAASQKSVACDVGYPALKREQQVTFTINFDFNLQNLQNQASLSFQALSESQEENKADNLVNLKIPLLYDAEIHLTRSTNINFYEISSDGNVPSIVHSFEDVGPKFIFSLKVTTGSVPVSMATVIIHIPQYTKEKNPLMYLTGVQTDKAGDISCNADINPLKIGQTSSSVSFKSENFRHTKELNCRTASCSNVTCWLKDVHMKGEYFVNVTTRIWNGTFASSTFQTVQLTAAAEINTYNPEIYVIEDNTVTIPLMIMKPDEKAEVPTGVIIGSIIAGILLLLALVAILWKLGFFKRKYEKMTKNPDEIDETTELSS

T2: ITGA2-His (UniProt P17301 30-1132, limits assumed)
T2 construct: Coated on the ELISA plate at 2 ug/mL; whole entry P17301 is named; also called ITGA2 protein; not shown: His tag
T2 sequence (looked up): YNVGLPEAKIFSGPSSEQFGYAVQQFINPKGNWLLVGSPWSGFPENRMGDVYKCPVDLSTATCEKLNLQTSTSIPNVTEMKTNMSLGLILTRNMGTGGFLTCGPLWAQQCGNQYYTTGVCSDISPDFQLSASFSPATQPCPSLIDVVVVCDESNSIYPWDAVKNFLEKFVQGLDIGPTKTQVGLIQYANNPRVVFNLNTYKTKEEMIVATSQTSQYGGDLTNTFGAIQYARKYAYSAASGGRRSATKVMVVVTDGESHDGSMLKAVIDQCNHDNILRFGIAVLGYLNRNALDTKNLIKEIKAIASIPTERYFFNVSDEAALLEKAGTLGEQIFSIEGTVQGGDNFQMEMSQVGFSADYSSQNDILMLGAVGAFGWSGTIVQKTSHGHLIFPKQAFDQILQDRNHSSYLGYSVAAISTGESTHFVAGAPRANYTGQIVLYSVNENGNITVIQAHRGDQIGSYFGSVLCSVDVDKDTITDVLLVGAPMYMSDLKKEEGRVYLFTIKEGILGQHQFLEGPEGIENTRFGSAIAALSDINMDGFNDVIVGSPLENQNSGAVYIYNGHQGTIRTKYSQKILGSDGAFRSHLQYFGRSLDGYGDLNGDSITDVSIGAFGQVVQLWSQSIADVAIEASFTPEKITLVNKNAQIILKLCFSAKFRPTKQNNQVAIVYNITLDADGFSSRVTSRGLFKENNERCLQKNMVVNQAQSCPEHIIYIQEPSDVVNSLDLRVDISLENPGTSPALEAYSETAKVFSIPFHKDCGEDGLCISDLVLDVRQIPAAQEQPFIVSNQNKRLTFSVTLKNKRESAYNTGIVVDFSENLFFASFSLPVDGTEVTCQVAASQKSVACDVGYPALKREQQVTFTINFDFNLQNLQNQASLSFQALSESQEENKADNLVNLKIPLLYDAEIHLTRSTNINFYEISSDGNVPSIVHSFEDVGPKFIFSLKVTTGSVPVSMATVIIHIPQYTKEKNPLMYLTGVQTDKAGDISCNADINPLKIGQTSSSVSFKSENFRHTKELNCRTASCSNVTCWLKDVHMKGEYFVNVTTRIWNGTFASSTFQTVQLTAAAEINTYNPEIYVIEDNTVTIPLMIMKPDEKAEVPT

B1: FS002-A153-H5L5-vcMMAE (antibody, human IgG1, kappa, V domains shown)
VH: QVQLVQSGAEVKKPGASVKVSCKASGYTFTDYEMHWVRQAPGQGLEWMGTIDPETGGTTYAQKFQGRVTMTADTSISTAYMELSRLRSDDTAVYYCARSGYYVSSYESYAMDYWGQGTTVTVSS
VL: EIVMTQSPPTLSLSPGERVTMSCRSSQSLLNSGNQKNYLTWYQQKPGQAPRLLIYGASTRESGVPARFSGSGSGTDFTLTISSLQPEDFAVYYCQNDYSYPFTFGGGTKLEIKR
modifications: vc-MMAE, attachment residues not stated; vc-MMAE (mc-vc-PAB-MMAE) conjugated after TCEP reduction, DAR 4.0 per antibody; attachment residues not stated
B2: FS002-A208-H4L4-vcMMAE (antibody, human IgG1, kappa, V domains shown)
VH: B1 VH with M34I, M48I, T50A, T59N, A61N, M70L, A97S, S105N
VL: DIQMTQSPSSLSASVGDRVTITCRASQNVGTNVAWYQQKPEKAPKSLIYSASYRFSGVPSRFSGSGSGTDFTLTISSLQPEDFATYYCQQYNIYPLSFGGGTKLELKR
modifications: vc-MMAE, attachment residues not stated; vc-MMAE (mc-vc-PAB-MMAE) conjugated after TCEP reduction, DAR 4.1 per antibody; attachment residues not stated
B3: FS002-A208-H5L4-vcMMAE (antibody, human IgG1, kappa, V domains shown)
VH: B1 VH with M34I, T50A, T59N, A97S, S105N
VL: B2 VL
modifications: vc-MMAE, attachment residues not stated; vc-MMAE (mc-vc-PAB-MMAE) conjugated after TCEP reduction, DAR 4.0 per antibody; attachment residues not stated
B4: FS002-A226-H3L4-vcMMAE (antibody, human IgG1, kappa, V domains shown)
VH: QLQLVQSGAEVKKPGASVKVSCKASGYTFTDYEIHWVRQAPGQGLEWIGAIDPETGGTNYNQKFNDRVTLTADTSISTAYMELSRLRSDDTAVYYCSRSGYYVSNYESYAMDYWGQGTTVTVSS
VL: DIQLTQSPSSLSASVGDRVTITCRASQDIKSYLSWYQQKPGKAPKLLIYDTSNLASGVPSRFSGSGSGTDFTLTISSLQPEDFATYYCQQWSSYPFTFGGGTKLEIKR
modifications: vc-MMAE, attachment residues not stated; vc-MMAE (mc-vc-PAB-MMAE) conjugated after TCEP reduction, DAR 3.8 per antibody; attachment residues not stated
B5: FS002-A226-H5L4-vcMMAE (antibody, human IgG1, kappa, V domains shown)
VH: B1 VH with M34I, T50A, T59N, A97S, S105N
VL: B4 VL
modifications: vc-MMAE, attachment residues not stated; vc-MMAE (mc-vc-PAB-MMAE) conjugated after TCEP reduction, DAR 3.8 per antibody; attachment residues not stated
B6: FS002-A103-H4L2-vcMMAE (antibody, human IgG1, kappa, V domains shown)
VH: B1 VH with T50V, A61N, M70L, A97S
VL: EIVMTQSPKTMSMSPGERVTLSCKASENVGTYVSWYQQKPGQAPRLLIYGASTRESGVPDRFSGSGSGTDFTLTISSLQPEDFAVYYCQNDYSYPFTFGGGTKLEIKR
modifications: vc-MMAE, attachment residues not stated; vc-MMAE (mc-vc-PAB-MMAE) conjugated after TCEP reduction, DAR 3.5 per antibody; attachment residues not stated
B7: FS002-A103-H4L3-vcMMAE (antibody, human IgG1, kappa, V domains shown)
VH: B1 VH with T50V, A61N, M70L, A97S
VL: B6 VL with K9P, D60A
modifications: vc-MMAE, attachment residues not stated; vc-MMAE (mc-vc-PAB-MMAE) conjugated after TCEP reduction, DAR 3.5 per antibody; attachment residues not stated
B8: FS002-A103-H4L4-vcMMAE (antibody, human IgG1, kappa, V domains shown)
VH: B1 VH with T50V, A61N, M70L, A97S
VL: B6 VL with K9P, M11L, M13L, K24R, V58I, D60A
modifications: vc-MMAE, attachment residues not stated; vc-MMAE (mc-vc-PAB-MMAE) conjugated after TCEP reduction, DAR 3.7 per antibody; attachment residues not stated
B9: FS002-A153-H3L3-vcMMAE (antibody, human IgG1, kappa, V domains shown)
VH: B1 VH with V20L, M48I, A61N, M70L, A97S
VL: DIVMTQSPDSLAVSLGERATINCKSSQSLLNSGNQKNYLTWYQQKPGQPPKLLIYGASTRESGVPDRFSGSGSGTDFTLTISSLQAEDVAVYYCQNDYSYPFTFGGGTKLEIKR
modifications: vc-MMAE, attachment residues not stated; vc-MMAE (mc-vc-PAB-MMAE) conjugated after TCEP reduction, DAR 3.8 per antibody; attachment residues not stated
B10: FS002-A153-H4L2-vcMMAE (antibody, human IgG1, kappa, V domains shown)
VH: B1 VH with M70L, A97S
VL: B9 VL with A19V, I21M
modifications: vc-MMAE, attachment residues not stated; vc-MMAE (mc-vc-PAB-MMAE) conjugated after TCEP reduction, DAR 3.8 per antibody; attachment residues not stated
B11: FS002-A153-H5L1-vcMMAE (antibody, human IgG1, kappa, V domains shown)
VH: B1 VH
VL: B9 VL with A19V, I21M, N22S, S69T
modifications: vc-MMAE, attachment residues not stated; vc-MMAE (mc-vc-PAB-MMAE) conjugated after TCEP reduction, DAR 3.7 per antibody; attachment residues not stated
B12: FS002-A153-H5L2-vcMMAE (antibody, human IgG1, kappa, V domains shown)
VH: B1 VH
VL: B9 VL with A19V, I21M
modifications: vc-MMAE, attachment residues not stated; vc-MMAE (mc-vc-PAB-MMAE) conjugated after TCEP reduction, DAR 3.5 per antibody; attachment residues not stated
B13: Humanized antibody FS002-A226-H5L4 (antibody, human IgG1, kappa, V domains shown)
VH: B1 VH with M34I, T50A, T59N, A97S, S105N
VL: B4 VL
notes: Humanized IgG1 kappa
B14: Chimeric mouse antibody FS002-A153 (antibody, human IgG1, kappa, V domains shown)
VH: QVQLQQSGAELVRPGASVTLSCKASGYTFTDYEMHWVKQTPVHGLEWIGTIDPETGGTTYNQKFNDKATLTADKSSSTAYMDLRSLTSEDSAVYYCSRSGYYVSSYESYAMDYWGQGTSVTVSS
VL: DIVMTQSPSSLTVTAGEKVTMSCKSSQSLLNSGNQKNYLTWYQQKPGQPPKLLIYGASTRESGVPDRFTGSGSGTDFTLTISSVQAEDLAVYYCQNDYSYPFTFGSGTKLEIKR
notes: Chimeric
B15: Vatelizumab (antibody, V domains shown)
VH: QVQLQESGPGLVKPSETLSLTCTVSGFSLTNYGIHWIRQPPGKGLEWLGVIWARGFTNYNSALMSRLTISKDNSKNQVSLKLSSVTAADTAVYYCARANDGVYYAMDYWGQGTLVTVSS
VL: DFVMTQSPAFLSVTPGEKVTITCSAQSSVNYIHWYQQKPDQAPKKLIYDTSKLASGVPSRFSGSGSGTDYTFTISSLEAEDAATYYCQQWTTNPLTFGQGTKVEIK
B16: Chimeric mouse antibody FS002-A208 (antibody, human IgG1, kappa, V domains shown)
VH: B14 VH with M34I, T50A, T59N, S105N
VL: DIVMTQSQKFMSTSVGDRVSVTCKASQNVGTNVAWYQQKPGQSPKTLIYSASYRFSGVPDRFTGSGSGTDFTLTINNVQSEDLADYFCQQYNIYPLSFGAGTKLELKR
notes: Chimeric
B17: Chimeric mouse antibody FS002-A226 (antibody, human IgG1, kappa, V domains shown)
VH: B14 VH with V2L, M34I, T50A, T59N, S105N
VL: DIKITQSPSSMYASLGERVTITCKASQDIKSYLSWYQQKPGSSPRLLIYDTSNLASGVPVRFSGRGSGTSYSLTISRMEAEDAATYYCQQWSSYPFTFGSGTKLEIKR
notes: Chimeric
B18: Humanized antibody FS002-A103-H4L3 (antibody, human IgG1, kappa, V domains shown)
VH: B1 VH with T50V, A61N, M70L, A97S
VL: B6 VL with K9P, D60A
notes: Humanized IgG1 kappa
B19: Humanized antibody FS002-A103-H4L2 (antibody, human IgG1, kappa, V domains shown)
VH: B1 VH with T50V, A61N, M70L, A97S
VL: B6 VL
notes: Humanized IgG1 kappa
B20: Humanized antibody FS002-A103-H4L4 (antibody, human IgG1, kappa, V domains shown)
VH: B1 VH with T50V, A61N, M70L, A97S
VL: B6 VL with K9P, M11L, M13L, K24R, V58I, D60A
notes: Humanized IgG1 kappa

Target: T1, ITGA2 protein on the surface of human …
Assay: cell-based or functional assay

Binder | A431 cell killing IC50 [nM]
B1 | 0.073
B2 | 0.051
B3 | 0.083
B4 | 0.063
B5 | 0.049
B6 | 0.061
B7 | 0.07
B8 | 0.052
B9 | 0.088
B10 | 0.057
B11 | 0.082
B12 | 0.028

Target: T1, ITGA2 protein on the surface of human …
Assay: flow cytometry on HuCCT1 cells

Binder | EC50 [nM]
B13 | 0.647
B14 | 0.333
B15 | 0.78
B16 | 0.76
B17 | 0.58
B18 | 0.08
B19 | 0.127
B20 | 0.3

Target: T2, ITGA2-His
Assay: ELISA, plate coated with 2 ug/mL ITGA2-His, anti-human IgG-Fc-HRP detection

Binder | EC50 [nM]
B13 | 0.022
B14 | 0.008
B15 | 0.008
B16 | 0.02
B17 | 0.018
B18 | 0.006
B19 | 0.006
B20 | 0.01
